Test: yeast display, Sf9 membrane polyspecificity reagent, FACS + sequencing; frameworks hold sequencing errors
Outline: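 A nanobody's polyreactivity label depends on the gate it was sorted from. Yeast display cells were stained with 10% biotinylated, detergent-solubilized Sf9 membrane reagent for 1 hour at 4 °C, enriched on streptavidin microbeads and sorted by FACS. The low and high (top ~1%) gates were set on anti-HA fluorescence for expression and streptavidin fluorescence for reagent binding.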

| Sequence | polyreactivity (PSR sort gate) |
| --- | --- |
| QVQLVESGGGLVQAGGSLRLSCAASGSIFRPYAMGWSRQAPGKERELVAAISWRSGRTYYADSVKGRFTISRDNAKNTVYLQMNSLKPEDTAVYYCAADLASYAYRYDYWGQGTQVTVSS | high polyreactivity |
| QVQLVESGGGLVQAGGSLRLSCASSGSTFKVYDMGWSRQAPGKERELVATITWGGGGTYYADSVTGRFTISRDNAKNTVYLLMNSLKPQDTAVYFCAAEVTLYSCYRYWYRYEYWGQGTQVTVSS | high polyreactivity |
| QVQLVESGGGLVQAGGSLRLSCAASGSTFLNYAMGWSRQAPGKERELVAAISGSTTRTYYADSVKGRFTISRDNAKNPVYLQMNSLKPEDTAVYYCAARVRYPPYRSSDGQRAGYWGQGTQVTVSS | high polyreactivity |
| QVQLVESGGGLVQAGGSLRLSCAASGLTFRYYTMGWYRQAPGKERELVAAISRTVGSTYYADSVKGRFTISRDNAKNTVYLQMNSLKPEDTAVYYCAAKYEQYSPAVIYYYWGQGTQVTVSS | high polyreactivity |
| QVQLVESGGGLVQAGGSLRLSCAASGRIIGYYTMGWYSQAPGKERELVAAITSGGRTYYADSVKGRFTISRDNAKNTVYLQMNSLKPEDTAVYYCAADWYYRSDYWGQGTQVTVSS | low polyreactivity |
| HVQLQESGGGLVQAGGSLRLSCAASGNISYSRNMGWYRQAPGKERELVAAIDRGAITYYADSVKGRFTISRDNAKNTVYLQIYSLKPEDTAVYYCAAEYHDRGDHRYWGQGTQVTVSS | high polyreactivity |
| QVQLVESGGGLVQAGGSLRLSCAASGSIFYPYVMGWYRQAPGKERELVATITWSGDDTNYADSVKGRFTISRDNAKNTVYLQMNSLKPEDTAVYYCAVGYGDYLYYDYDYWGQGTQVTVSS | low polyreactivity |
| QVQLVESGGGLVQAGGSLRLSCAASGRNFAYYAMGWYRQEPGKERELVAVISKSGGSTNYADSVKGRFTISRDNAKNTVYLQMNSLKPEDTAVYYCAKRAYDPEMYYWGQGTQVTVSS | low polyreactivity |
| QVQLVESGGGLVQAGGSLRLSCAACGRTLVRYAMGWYRQAPGKERELVATITRGGSTNYADSVKGRFTISRDNAKNTVYLQMNSLKPEDTAVYYCARDLYYSSRYSPYGRYDYWGQGTQVTVSS | high polyreactivity |
| QGQLVESGGGLVQAGGSLRLSCAASGFTFSYYAMGWYRQAPGKERELVAAISRSGGSTYYADSVKGRFTISRDNAKNTVYLQMNSLKPEDTEVYYCAKRIKDRSGEAYVGLYYWGQGTQVTVSS | high polyreactivity |
| QVQLVESGGGLVQAVGSLRLSCASSGNTFGPNAMGWYRQAPGKERELVAAIRWRGGSTYYADSVKGRFTISRDYAKNTVYLQMNSLKPVDNAVYYCAAGIHSPTYRTGTTYVDYDYWGQGTQVTVSS | high polyreactivity |
| QVQLVESGGGLVQAGGSLRLSCAASGFTFYRYAMGWYRQAPGKERELVAAISQRGGRTYYADSVKGRFTISRDNAKTTVYLQMNSLKPEDTAVYYCNARYSGYGLYDYWGQGTQVTVSS | high polyreactivity |
| QVQLVESGGGLVQAGGSLRLSCAASGRIFQANAMGWYRQAPGKERELVAAISWSGGSTYYADSVKGRFTISRDNAKNTVYLQMNSLKPEDTAVYYCAKDYVHQYGVYKVWANNYNYWGQGTQVTVSS | low polyreactivity |
| QVQLVESGGGLVQAGGSLRLSCAASGSTFEGNDMGWYRQAPGKERELVAAITTGAGTNYADSVKGRFTISRDNAKNTVYLQMNSLKPEDTAVYYCATRVYWYYDPYYSKYTYDYWGQGTQVTVSS | low polyreactivity |
| QDQLVESGGGLVQAGGSLRLSCAASGRTFRRNAMGWYRQAPGKERELVAAITWRGTSTYYADSVKGRFTISRDNAKNTVYLQMNSLKPEDTAVYYCAAVVKDSRPYQAYVGSIHRDYWGQGTQVTVSS | high polyreactivity |
| QVQLVDSGGGLVQGGGSLRLSCADSGYIFGRNAMGWYRQATGKEREFVAALSSSGSSTYYADSVKGRFTISRDNEKNTDYLQLNSLKPEDTAVDYCNAVRYYLAVPYDSWGQGTQVTVSS | high polyreactivity |
| QDQLVESGGGLVQAGGSLRLSCAASGSTFYNYAMAWYRQAPGKEREFVAAISSGGGITYYADSVKGRFTISRDNAKNTVFLQMISLIPEDTAVYYCNAKMISGISTADSRSRIYDYWGHGTQVTVSS | high polyreactivity |
| QVQLVESGGGLVQAGGSLRLSCAASGFIFVRYAMGWYRQAPGKERELVAAISSGGSTQYADSVKGRFTISRDNAKNTVDLQMNSLKPEDTPVYYCAAAATPGRGGDYWGQGTQVTVSS | high polyreactivity |
| QVQLVESGGGLVQAGGSLRLSCAASGSIFRYNAMGWYRQAPGKERELVAVITSTGSTSYADSVKGRFTISRDNAKNTVYLQMNSLKPEDTAVYYCAATRERHYSYQYLVPYYYWGQGTQVTVSS | high polyreactivity |
| QVQLVESGGGLFQAGGSLRLSCAASGGTFPYNAMGWYRPAPGKERELVATISFTDGSTYYADSVKGRFTLSRYIAKNTVYLQMNSLKPEDTAVYYCAKDYYRPGMDYWGQGTQVTVSS | low polyreactivity |
| QVQLVESGGGLVQAGGSHRLSCAASGRIFGYNAMGWYRQAPGKEWELVAAISSPGNTYYADSVKGRFTISRDNAKNTVYLQMNSLKPEDTAVYYCARSWLYSQRRYDYWGQGTQVTVSS | low polyreactivity |
| QVQLVESGGGLVQAGVSLRLSCAASGRTFRSNAMGWYRQSPGKERELVAAITASGGNTYYADSVKGRFTISRDNAKNTVYLQMNSLKPEDTAVYYCAAVSRYNYGTNPYYYWGQGTQVTVSS | high polyreactivity |

| Sequence | polyreactivity (PSR sort gate) |
| --- | --- |
| QVKLVESGGGLVQAGGSLLLSCAASVLTFYRYVIVCYRQEPGKERELVAAITKSGGSTYYADSVKGRFTISRDNAKNTVYLQMNSLKPEDTAVYYCAVRSYWRGDYWGQGTQVTVSS | high polyreactivity |
| QVQLVESGGGLVQAGGSLRLSCAASGSTFRRNAMGWYRQAPGKERELVAAITSGGSTYYADSVKGRFTISRDNAKNTVYLQMNSLKPEDTAVYYCNRLYRWKKPLDYDYWGQGTQVTVSS | high polyreactivity |
| QVQLVESGGGLVQAGGSLRLSCAASGLTFSIYAMGWYRQAPGKERELVAAISWSGGSTYYADSVKGRFTISRDNAKNTVYLQMNSLKPEDTAVYYCAARVYRPWWRYDYWGQGTQVTVSS | high polyreactivity |
| QDQHVESGGGLVQAGGSLRLICDASGTFKFSAMGWYRQAPGKERELVARISRGGTTNYADSVKGRFTISRDNAKNTVYLQMNSLKPAETAVYYCAAPLRYVYSNSYWAYRYDYSGQGTQVTVSS | high polyreactivity |
| HVLLQESGGGLVQAGGTLRLSCAASGTITTDIRMGWYRLAPGKEREFVASIDGCSTTYYADSVKGRFTISRDNAKNTVYLQMNSLKPEDTAMYYCAAREATEFYLFYWGQGTQVTVSS | low polyreactivity |
| QVQLVESGGGLFQAGGSLRLSCAASGSTFGSYAMGWYRQAPAKERELVADISSRGASTYYADSVKGRFTISRDNEKNTVYLEMISLKPEDTAVYYCNTTGEYYDYWGHGTQVTVSS | low polyreactivity |
| QVQLVESGGGFVQAGASLRLSCAASGRTFYRYAMGWYRQAPGKERQLVAAINWRGGSTSYADSVKGRFTISRDNAKNTVYLQMNSLIPEDTAVYYCNAKFICWYEKGGCNVSKYEYWGQGTQVTVSS | low polyreactivity |
| QVQLVESGGGLVQAGGSLRLSCAASGRTFGRNAMGWYRQSPGKERELVAAISRSGASTYYADSVMGRFTLSRDNAKNTVYLQMNSLKPEDTAVYDCAARYSYYHGSAGFDYWGQGTQVTVSS | high polyreactivity |
| QVQLQESGGGLVQAGGSLRLSCAASGYISTFSSEMGWYRQAPGKERELVASIAPGCTTSYADSVKGRFTISRDNAKNTVYLQMHRLKPEDTAVYYCAVDYTVPASFGYWGQGTQVTVSS | high polyreactivity |
| QVQLVESGGGLVQAGGSLRLSCAASGLIFRGYAMGWYRQAPGKERELVAAISGSGVTTYYADSVKGRFTISRDYAKNSVYLQMNCLKPEDTAVYYCAASTRYEGNYWGQGTQVTVSS | high polyreactivity |
| QVQLVESGGGLVQAGGSLRLSCAASGLIFVYNAMGWYRQAPGKEREFVAGITSGGSTNYADSVKGRFTISRDNAKNPVYLQMNSLKPEDTAVYDCAAGYYDLYLWWGYDYWGQGTQLTVSS | high polyreactivity |
| QVQQQESGGGLVQASGSLRLSCAASGNIFPDYVMGWYRQGPGQEREFVANITGGSTTNYADSVKGRFSISRDNAKNTVYLQMNCLKQEDTAVYYCAVNFGTVVLYLYWGQGTQVTVSS | high polyreactivity |
| QVQLVESGGGLVQAGGSLRLSCAASGGTFWAYTRGWYRQAPGKERELVATISFGTGNTYYADSVKGRFTISRDNAKNTVYLQMNSLKPEDTAVYYCAAQWPELTRSYVTVEVDYWGQGTQVTVSS | low polyreactivity |
| QVHLVESGGGLVQAGGSLRLSCAASGRTIQTYTMGWYRQAPGKERELVAVITTRGGRTYYADSVKGRFTISRDNAKNTVYLQMNILKPEDTGVYYCNKGITTRSVRSYDYWGQGTQVTVSS | high polyreactivity |
| QVQLQESGGGLVQAGGSLRLSCASSGTISQEDWKGWYRQAPGKEREFVAAIGLGSNTNYADSLKGRFTISRDNAKNTVYLQMNSLKPEDTAVYYCAVSVWQYSDHVYRGQGTQVTVSS | low polyreactivity |
| QVQLVESGGGLVQAGGSLRLSCAASGSIFYGNAMGWYRQAPGKERELVAGISWSGGSTYYADSVKGRFTISRDNAKYTVYLQMNSLKPEDTAVYYCATVADEPRAYSGYEESDYWGQGTQVTVSS | low polyreactivity |
| QVQLVESGGGLVQAGGSLRLSCAASGITFDGYAMGWDRQAPGKERELVAVISWSAGSTYADSVKGRFTISRDNAKNTVYLQMNSLKPEDTAVYYGNARTTYRSSRYRRYEYWGQGTQVTVSS | high polyreactivity |
| QVQLVESGGGLVQAGGSLRLSCAASGSTVKYAMGWYRQAPGKERELVAAISSRGGSTSYADSVNGRFTISRDNAKNTVYLQMNSLKPEDTAVYSCARRIRQQRFGGNYWGQGTQVTVSS | high polyreactivity |
| QVQLVESGGGLVQAGGSLRLSCAASGITFNHYAMGWSRQAPGKERELVAVISRTVGSTYYADSVKGRFTISRDNAKNTVYLQMNSLKPEDTAVYYCAARGPRPDGYSGRSDYWGQGTQVTVSS | high polyreactivity |
| QVQLVESGGGLVQAGGSLRLSCSSSGYTFYGYAMGWCRQAPGKERELVADISWSGTNTNYADSVKGRFTISRDNAKNTVYLQMNSLKQDDTAVYYGAAGYYYRGFYTEDYWGQGTQVTVSS | high polyreactivity |
| QVQLVESGGGLVQAGGSLRLSCAASGSTFYIYAMGWYRPAPGKERELVARISGSGGSTYYADSVKGRFTISRDNAKNTVYLQMNSLKPEDTAVYYCAADDIYKYYQYYAFPYYRYDYWGQGTQVTVSS | low polyreactivity |

From the nanobody polyreactivity screen of Harvey et al. (2022)
